The results in this text go back to US20240352438A1, “MEANS AND METHODS FOR DETOXIFYING OCHRATOXIN A” (DSM Austria GmbH, priority 2021, published 2024).

The nature of data set [1]: OTA detoxification activity assay (specific activity, fluorescence reduction ex/em 390/450 nm). It is filed as biochemical. As to conditions: 37° C., 200 ng/mL OTA, 100 mM sodium phosphate buffer. A digest of the protocol:
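Recombinant enzyme preparation with 200 ng/mL OTA in 100 mM sodium phosphate, at pH 6.0 and pH 7.5, 37° C. Degradation followed as the fall in fluorescence at ex/em 390/450 nm. Specific activity taken from the initial linear slope; one unit degrades 1 μmol OTA per min at a starting OTA of […].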

Data set [2] in a line: Thermostability assay: residual OTA detoxification activity after 10 min incubation at 45-99° C. (T50). Format: physicochemical. As to conditions: for T50 (temperature range in which 50% of the initial activity was lost after the incubation): 0.1 mg/mL in 20 mM Tris-HCl buffer pH 7.5; for T50 (temperature at which 50% of the initial activity was maintained): 0.1 mg/mL protein in 20 mM Tris-HCl pH 7.5, residual OTA detoxification activity relative to 4° C. reference aliquot. As for the experimental part: Stability was determined in terms of thermostability. Notwithstanding, a person having skill in the art is aware that stability towards high temperature (e.g. more than 30° C.) often correlates with stability towards other non-standard conditions such as stability towards acidic or basic pH (e.g. below pH 6.5 or above pH 7.5, respectively), towards elevated salt concentrations, organic solvents or drying.
To determine the kinetic stability of the produced enzymes, thermostability assays were performed. To this end, purified protein samples were diluted to a protein concentration of 0.1 mg/mL in 20 mM Tris-HCl buffer pH 7.5 and aliquots were incubated in a thermocycler for 10 min at either 45, 55, 65, 75, 80, 85, 90, 95 or 99° C. After this incubation, the aliquots were stored at 4° C. until further analysis. A reference aliquot was stored at 4° C. throughout the incubation. Subsequently, all aliquots were assayed for residual OTA detoxification activity using the assay described in Example 3. Residual enzyme activities were calculated relative to the reference aliquot. The temperature range in which 50% of the initial activity was lost after the incubation (T50), in relation to the reference aliquot was determined.

B1: SEQ ID NO: 348: another exemplary OTA-hydrolyzing polypeptide, amidohydrolase family; mature, processed species of SEQ ID NO: 349 (protein)
chain: RAHIVEPVAIKAKRVFTGVTGAVIENGVVIVDDKGRIAAISRVVPKGAKVIDLGDATLLPGFIDAHVHLSGEMSDNWYKDFRDRMLRFPAEQAHYAARNAKKTLMAGFTTVRDVGSADWQASALRNAVNAGVIVGPRILASNYAIGATGGHGDGTPFPPDRVAPDGPLKGVCNGADQCRAAVRYQIKYGADVIKFMPSGGVLSLSDPVDVPELTQDEINAIISEAHAWHRKVAAHAHGDEAARMAVKAGVDSIEHGTFLTDETLKQMKKQGTYLVATLFAGEWVGMKADNYPPAVAEKARAAAAQMQRMFARAVKIGVPIAFGTDAGVEPHGLNAHEFSLMVKNGMSPKAALLAATREAAKLLGVIDRTGTLEPGKAADMVAVRGDPLADIKATEQVIFVMKGGKIYRNEVE
modifications: exemplary polypeptide
Turning to B1, in data set [1], the “Specific OTA detoxification activities in U/g at pH 6.0” value is roughly 19 U/g and the “Specific OTA detoxification activities in U/g at pH 7.5” value is listed as “approximately 32 U/g”. In data set [2], the “T50 (temperature range in which 50% of the initial activity was lost after the incubation)” value was 85-90 °C.

B2: 19 (protein)
chain: MLSLLAANACVADAAPAASRTIVLRAARMFDGASGKLVEHPQLTIVGNKIVRIAQSDNAEVPASAEVIDLGDATLLPGFIDAHVHLSGQSSDNWYGDFFDNMMRFPAEQALYGAYYACITLEAGFTSVRDLGSTDWVALGLRNAIDAGKVPGPRMLVSNYAVGSTGGHADQDPIPPHRLPLAGPLQGVCNGPEECRAAVRYQIKYGANVIKFMPSGGVLSLSDPVDAPELSQDEMNAVIGESHAWGRKVAAHAHGDKAAKMAVAAGVDSIEHGSFIEDDTLRAMKAKNVYLVPTISAIAHVEEKIATFPPVIAEKGRAAAAHSRQTFRHAVQIGVPIALGTDAGVGAHGTNAREFRYMVENGLTPVQSLLAGTANAARLLGIIDRVGTLEAGKLADIVAVPGNPVADITVTERPVFVMKDGVVVRRGAVR
modifications: polypeptide 5
Regarding B2, in data set [1], the “Specific OTA detoxification activities in U/g at pH 6.0” value is 8.72 U/g and the “Specific OTA detoxification activities in U/g at pH 7.5” value is given as 10.91 U/g. For the same molecule, in data set [2], the “T50 (temperature at which 50% of the initial activity was maintained)” value was determined as 65 °C.

B3: 369 (protein)
chain: MRTRTRILTASLALLAANAWAADAMPSTPHTVVLRAARMFDGASGKLVEHPQLTIVGNKIVRVAQDDKAAVPAGADVIDLGDATLLPGFIDAHVHLSGQSSDNWYGDFFDNMMRFPAEQALYGAWYARITLEAGFTSVRDVGSTDWIALGLRNAIDAGKVPGPRMLVSNYAIGSTGGHADQDPIPPQKLAPAGPLQGVCNGPDECRAAVRYQIKYGANVIKFMPSGGVLSLSDPVDAPELTQEEMNAVVGEAHAWGRKVAAHAHGDKAAKMAVAAGVDSIEHGSFLEDDTLRMMKAKGVYLVPTISAVMHVEEKIATFPPVIAEKGRAAAAHVRQTFRHAVQIGVPIALGTDAGVGAHGTNAREFRYMVDNGMAPAQALLAGTSNAARLLGTIDRVGTLEAGKLADVVAVPGNPVADITVTERPVFVMKDGVVVRRGAVR
modifications: exemplary polypeptide
For the molecule B3, in data set [1], the “Specific OTA detoxification activities in U/g at pH 6.0” value turned out to be 122.50 U/g and the “Specific OTA detoxification activities in U/g at pH 7.5” value came to 159.80 U/g. Also, the “T50 (temperature at which 50% of the initial activity was maintained)” value in data set [2] came to 68 °C.

B4: 21 (protein)
chain: MTTPTRILTAVLALLASNACAADATPSTPHTVVLRAARMFDGASGKLVERPQLTIVGNKIVRIAQADKADVPAGAEVIDLGDATLLPGFIDAHVHLSGQGSDNWYGDFFDNMMRFPAEQALYGAYYARITLEAGFTSVRDVGSTDWVALGLRNAIDAGKVPGPRMLVSNYAVGSTGGHADQDPIPPHKLPLAGPLQGVCNGPEECRAAVRYQIKYGANVIKFMPSGGVLSLSDPVDAPELSQDEMNAVIGESHAWGRKVAAHAHGDKAAKMAVAAGVDSIEHGSFIEDDTLRAMKAKGVYLVPTISAIAHVEEKIATFPPVIAEKGRAAAAHLRQTFRHAVQIGVPIALGTDAGVGAHGTNAREFRYMVENGLSPAQSLLAGTSNAARLLGTIDRVGTLEAGKLADVVAVPGNPIADITVTERPVFVMKDGVVVRRGAVR
modifications: polypeptide 7
On to B4, for which, in data set [1], the “Specific OTA detoxification activities in U/g at pH 6.0” value came out at 20.53 U/g and the “Specific OTA detoxification activities in U/g at pH 7.5” value is 30.87 U/g. Moreover, in data set [2], the “T50 (temperature at which 50% of the initial activity was maintained)” value was 65-75 °C.

B5: 368 (protein)
chain: MTTPTRILTAVLSLLAANACAADAAPATPHTVVLRAARMFDGASGKLVERPQLTIVGNKIVRIAQADKADVPAGAEVIDLGDATLLPGFIDAHVHLSGQGSDNWYGDFFDNMMRFPAEQALYGAYYARITLEAGFTSVRDVGSTDWVALGLRNAIDAGKVPGPRMLVSNYAVGSTGGHADQDPIPPHKLPLAGPLQGVCNGPEECRAAVRYQIKYGANVIKFMPSGGVLSLSDPVDAPELSQDEMNAVIGESHAWGRKVAAHAPGDKAAKMAVAAGVDSIEHGSFIEDDTLRAMKAKGVYLVPTISAIAHVEEKIATFPPVIAEKGRAAAAHLRQTFRHAVQIGVPIALGTDAGVGAHGTNAREFRYMVENGLSPAQSLLAGTSNAARLLGTIDRVGTLEAGKLADVVAVPGNPIADITVTERPVFVMKDGVVVRRGAVR
modifications: exemplary polypeptide
On to B5, for which, in data set [1], the “Specific OTA detoxification activities in U/g at pH 6.0” value turned out to be 3.70 U/g and the “Specific OTA detoxification activities in U/g at pH 7.5” value is 15.10 U/g. For the same molecule, in data set [2], the “T50 (temperature at which 50% of the initial activity was maintained)” value is 68 °C.

B6: SEQ ID NO: 336: another exemplary OTA-hydrolyzing polypeptide, amidohydrolase family; mature, processed species of SEQ ID NO: 337 (protein)
chain: VPAPPRPAVLKAARIFDSVSGHLEEPGLVVVAGAKIQAVGSDARIPDNAQVIDLGDATLMPGFIDAHVHLSSEMSDKWYEDWYKSMVRFPAEQALYGAHYAKATLEAGITTVRDLGSSDYISLGLRNAIKAGQIPGPRMLVANYAIGSTGGHADQDPVPPQRLAPAGPIQGVCNGPDECRAAVRYQLKYGADVIKFMPSGGVLSLSDPVDTPELTQEEMNAIVSEAHAWKRKVAAHCHGDRAAKMAIAAGVDSIEHGTFLQDDTLQEMKDKHIYLVPTLSAGYWVGLKADTYPPVIAEKARAASRQMQKMFQRAVKIGVPIAMGTDAGVEPHGQNAREFSLMTTNGLPPAQALLAATAKGADLLGISDQTGTLQPGKYADIVAVGGNPLLDIKATEHPLLVMKEGVIYVGGK
modifications: exemplary polypeptide
As to B6, in data set [1], the “Specific OTA detoxification activities in U/g at pH 6.0” value is listed as roughly 22 U/g and the “Specific OTA detoxification activities in U/g at pH 7.5” value is given as “approximately 40 U/g”. Besides, the “T50 (temperature range in which 50% of the initial activity was lost after the incubation)” value in data set [2] was 90-95 °C.

B7: 20 (protein)
chain: MTTRFRILTAVLSLLAASACAADAAPATPHTVVLRAARMFDGASGKLVERPQLTIVGNKIVRIAQADKAEVPAGAEVIDLGDSTLLPGFIDAHVHLSGQGSDNWYGDFFDNMMRFPAEQALYGAYYARITLEAGFTSVRDLGSTDWVALGLRNAIDAGKVPGPRMLVSNYAVGSTGGHADQDPIPPHKLPLAGPLQGVCNGPEECRAAVRYQIKYGANVIKFMPSGGVLSLSDPVDAPELSQDEMNAVIGESHAWGRKVAAHAHGDKAAKMAVAAGVDSIEHGSFIEDDTLRAMKAKNVYLVPTISAIAHVEEKIGTFPPVIAEKGRAAAAHLRQTFRHAVQIGVPIALGTDAGVGAHGTNAREFRYMVENGLTPAQSLLAGTSNAARLLGTIDKVGTLEAGKLADVVAVPGNPIADITVTERPVFVMKDGVVVRRGAVR
modifications: polypeptide 6
As to B7, in data set [1], the “Specific OTA detoxification activities in U/g at pH 6.0” value was found to be 49.73 U/g and the “Specific OTA detoxification activities in U/g at pH 7.5” value is listed as 100.52 U/g. Also, the “T50 (temperature at which 50% of the initial activity was maintained)” value in data set [2] was less than 45 °C.

B8: 22 (protein)
chain: MQYDVAIKNGNVFTGTEFIGKMNIYISNGKISKVSKEDLNAKQEIDAKDMLVMPGLIDAHMHISGLKGGSLLKIMFEKPEYRALRATKWLEKLLLAGFTTVRDCGEPISISLKRAVNEGYIKGPKIIAAGKPITQTFGHGEFSHDIPLEFSISLGFSEICDGTESCIHAARKVLRDGSDFIKIFATGGVLSQRDRPDMPQLSFDEIRAIVNEAEKAGTYVAAHAHGDKGARIAIEAGIKTLEHGSLLKEDTLKLMLEKNISLTPTLTITEIIYKYGKTIGVDEWGLEKIVEVRENLHKVLRKAKELGITIITGTDMGFETGLEDYDIGKNWTEILLLTEVGGLSNEEALRAATYNSAKALGLNSGLIDEGKDADIIVIDGNPLENIKDVSKVVHVIKQGKLEVLDGKIINNY
modifications: polypeptide 8
For B8, in data set [1], the “Specific OTA detoxification activities in U/g at pH 6.0” value was 0.66 U/g and the “Specific OTA detoxification activities in U/g at pH 7.5” value was 0.79 U/g. In data set [2], the “T50 (temperature at which 50% of the initial activity was maintained)” value was greater than 95 °C.
